{
  "source": "paper PMC11271267",
  "molecular_target": "MetCb purified individually (Aminobacter sp. strain NyZ550)",
  "assay": "not stated; purified MetCb alone in solution; experiment not described",
  "data": [
    {"substance": "MetCb purified individually (natural protein)", "values": [
      {"measurement": "stoichiometry N", "value": 6}
    ]}
  ]
}
